A protein production outcome set (Wang et al. 2014)

Assay: label from the status in PepcDB records
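Further: failed if final PepcDB status was selected cloned or expressed and not failed if soluble or beyond.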

Sequence	protein production
MAELNFKAIEEKWQKRWLEAKIFEPNIRDKPKEKKFYITVAFPYLSGHLHVGHARTYTIPDVIARFKRMQGYNVLFPMAWHITGSPIVGIAERIKNRDPKTIWIYRDVYKVPEEILWTFEDPINIVKYFMKAAKETFIRAGFSVDWSREFYTTSLFPPFSKFIEWQFWKLKEKGYIVKGAHRVRWDPVVGTPLGDHDLMEGEDVPILDYIIIKFELRENGEVIYLPAATLRPETVYGVTNMWVNPNATYVKAKVRRKDKEETWIVSKEAAYKLSFQDREIEVIEEFKGEKLIGKYVRNPVSGDEVIILPAEFVDPDNATGVVMSVPAHAPFDHVALEDLKRETEILEKYDIDPRIVENITYISLIKLEGYGDFPAVEEVNKLGIKSQKDKEKLEQATKTIYKAEYHKGIFKVPPYEGKPVQEVKEAIAKEMLEKGIAEIMYEFAEKNVISRFGNRAVIKIIHDQWFIDYGNPEWKEKARKALERMKILPETRRAQFEAIIDWLDKKACARKIGLGTPLPWDPEWVIESLSDSTIYMAYYTISRHINKLRQEGKLDPEKLTPEFFDYIFLEEFSEDKEKELEKKTGIPAEIIHEMKEEFEYWYPLDWRCSGKDLIPNHLTFFIFNHVAIFREEHWPKGIAVNGFGTLEGQKMSKSKGNVLNFIDAIEENGADVVRLYIMSLAEHDSDFDWRRKEVGKLRKQIERFYELISQFAEYEVKGNVELKDIDRWMLHRLNKAIKETTNALEEFRTRTAVQWAFYSIMNDLRWYLRRTEGRDDEAKRYVLRTLADVWVRLMAPFTPHICEELWEKLGGEGFVSLAKWPEPVEEWWNETIEAEEEFIRSVMEDIKEIIEVAKIENAKRAYIYTAEDWKWKVAEVVSEKRDFKSSMEELMKDSEIRKHGKEVAKIVQKLIKERTFDVKRINEEKALREAKEFMEKELGIEIIINPTEDKGGKKKQAMPLKPAIFIE	not failed
MKVTDVRLRKIQTDGRMKALVSITLDEAFVIHDLRVIEGNSGLFVAMPSKRTPDGEFRDIAHPINSDMRQEIQDAVMKVYDETDEVVPDKNATSEDSEEA	not failed
MSDWTDGYVAEIDYTHGFYRELTPAHLRFCLLSRGLRAPEEDAGVSYCELGFGQGVTLNIVAATHPLASVWGTDFNPSHAAAARQLSLDGGTANTAFGDDSFEEFLAREDLPTFDFIVLHGIYSWISAENRAVIGRFLRRRLKVGGVVYISYNTLPGWAAIMPLRALMIDHAKAERAGMTERVDKALAFARTLAEGKAGYFTANPAVAPRLEKMATMSRNYLAHEYFNRDWTPLYHADVVRELTAAKLSFAASAHVTDLIDVVALSAPGREMLAAVNDPLFRETLRDYIVNQQFRRDIFTRGALRLTPLEQIEGLRAQRLALIVPRATIPEKATFPIGTTDLKPEIYGPFFDRLDKGPITLADLAAAEPALAPLPLATLHQAALVAISQGWVAPCPEAAGEGARRKATKRFNAAVLERARRSADLTVLASPVLGGGLGVDRIQQLFLLARAEKHPDPASFVWGILSSQGQRLVKEGKPLEDVDQNMAELRLRAQTFTDSFLPLYDRLGIV	failed
MNHTLQFPKAPEHLLQALNEVIPKCKLMAQQLPETAISLWLIPPVFPTERLDDDIIRRIWSDTPYWIFCWASGLAMAQWLLAEPHHVKDKVVLDFGAGSGVVAIAAKMAGAKRVICCDIDETSLNACRENALLNNVELEYLNDLYLSESVDILLAADVLYDQSNRFFLDEFLKFAPEVWVADSRVKNFSHPGYIKIDERSATTWPDLDEAKEFRNVSFYKTL	failed
MGHHHHHHSHMIEHDPVKPRQLPKTIGCSKNFPGKTALATREQVQWWLLQLAQELEERLTKDRNDNDRVATQLVVSIRVQGDKRLSSLRRCCALTRYDAHKMSHDAFTVIKNCNTSGIQTEWSPPLTMLFLCATKFSASAP	not failed
MIFASDLDQTLIYSRKSFRAHIEDNSIQLIETLDGKEISFITYKTITLLIKLQLHSYFIPVTTRTIEQFQRITLFQNEIIPEYAITSNGGNILHNGKQDVTWNKEIKKRISVECIERNDILKEFEQIAHKDWVISQKTADDLFHYCIIKRENIPYDELSSFTSWLDKQGWNHSLQGRKLYFVPKPINKWDAVQYIQEILQMDTIITAGDSLLDLCMLEKANYAFAPLHGELGATYNHLQPHIVKTDAIGIYAAEEIVSKSLQIIHSSSPTS	failed
MNVELFKKFSEKVEEIIEAGRILHSRGWVPATSGNISAKVSEEYIAITASGKHKGKLTPEDILLIDYEGRPVGGGKPSAETLLHTTVYKLFPEVNAVVHTHSPNATVISIVEKKDFVELEDYELLKAFPDIHTHEVKIKIPIFPNEQNIPLLAKEVENYFKTSEDKYGFLIRGHGLYTWGRSMEEALIHTEALEFIFECELKLLSFHS	not failed
MTQMRFTEEDFNTFTIEGLDARMEVLKETVRPKLTALGEHFAPTLSALTGDEMFPHVAKHARRSVNPPADSWVAFANSKRGYKKLPHFQIGLWESHVFVWFAIIYESPIKEEYGKLLEVNQETITKNIPDSFVWSADHTKPGVHKQSEMDKEQLKTLFERLQTVKKAELLCGIQLQKEEVLNMNNQEFLQRIDDAFKQLAFLYRLTQKVTQALEHHHHHH	not failed
MTTTSSINERQVLKHLQAQLPDCLLLDRFHLKRRLQQVGAMLEQGKPVDKLMTELATKVQTSLQRRQLRQEQLPKPEYPAELPVSARKDEIAQAIAKHQVVIVSGETGSGKTTQLPKICLELGRGVAGLIGHTQPRRIAARSVASRIAQELKSPLGEAVGYKVRFNDRLSETTYIKLMTDGILLAETQGDRFLNAYDTIIIDEAHERSLNIDFLLGYLKQLLPRRPDLKVIVTSATIDAERFSRHFNGAPVIEVSGRTYPVEIRYRPLGSRRMVVAPPAPVAAPVPVVAQKEEAPQEDIIDIGIKRKAGNIDPSIRKWLEDDNDVEVLGQDIMGIQRKPRAEAKWLEEDDAEEAMEEAILDSVEQLSRLGGGDILVFLPGEREIRETADYLNKHLRHVEILPLFARLSIEDQQKVFRSSGGRRVVLATNVAETSLTVPGIKYVIDTGLARVNRYSARAKVEQLQVEKISQAAARQRAGRCGRVSNGICIRLYDEADFNHRPEFTDPEILRSSLAAVILRMAALKLGNVQDFPFIEAPSSRYIADGYQLLQELGAVDAEQNITDTGRQLARLPLDPRVSRMILEGKKQGCVREILIIASALAIQDPRERPMDKREAADQAHAKFNVEHSDFLGFIKLWEWYEDALKTKKSNKDLLNKCHSNFLSFLRLKEWRELYQQLREIAEELELKLNEQPASYEQVHRALLAGLLGNIGFKDGEADNYLGARGIRFHIAPGSTLKKARPKWVMAAELMETTKLYARCVARIEPDWIEPLARGLTQSHYSDPRWDRKAAQVVAWERVSLYGLTVVPRRRVHYGPINPQESREIFIREALANMEFDTRAPFFAANRKLIAEIEELEHKARRQDVLVDEHTLFAFYDAIIPAGIVNGAGFEKWRQEAERETPRLLYLTRDHLMRHGAAGVTEVQFPESLELDGVKLPLKYRFEPGHPLDGVTATVPLALLNQLNPVEAEWLVPGMIREKVTALIKALPKTLRRVCVPVPDFVTGFLETATRKDGALLPALASYIQQRTGLKLSASEWQADALDAHLYMNFRVVDEKNRELGSGRDWHALKAQLGQAAQLTFRSNSPGIEKAGLKQWDFGDLPPTLSFSRDGRQLTGYPALEDNGDSVAIKLFDTELAARQSHRAGVRRLMRFELKEQMKQLEKGLPGFNQYALQLRSIMSPEELREDMLVAISDRAFIGEDELPRNSQDFMALKARARTRLPAVVEGAGRLATAIATEYTQLTQKLNAAPASLSRVKKELEGQLARLLPKRFFSATPWDTLQHLPRYIKAMRLRLEKYPGAIERDTRSGQAVQQIWERWESHVQGLRKANQEVPPAVLDYRWLIEELRVSLFAQELKTPFPVSVKRLDKAWEDMVRA	failed
MAINRSSDHESDENTRLYHPYQNYQVPIKSQYLYKLPTSPEFLFTEESLKQRRSWGENLTFYTGTGYLAGSVAGASAGIFSGIKSFENGDTTKLKINRILNSSGQAGRTWGNRVGIVGLIYAGIESGVVAVTDKDDVWTSVVAGLGTGAVFRAARGVRSAAVAGAFGGIAAGAVVAGKQVFKRDPERGSITLDP	failed
MDISGRDVETRLTLAREFMSGVDELPTVPDIVLRIAGKLNDPDVAIDEVADLLLQDQVLTARVVHLANSPLYSAARPISSIRDAVIYLGLDLLREAIFTCAIVDLFKTGKGPLNRSTLWAHSLGVARIAKLIAERTGFLNPVNVYVAGLLHDVGEVFINFFRGKEFSQVVTLVDEEKITFGQAEERLFGTSHCEVGFALAKRWSLNEFICDTILYHHDIEAVPYKQAAIVAMVAFADEYCTLRRLGFEGHKPVDSVRTLLENHPSWGVIRRSLGGSDFDEKLIVAELDSSIVEIRAAVDELFLL	failed
MKLCFNEATTLENSNLKLDLELCEKHGYDYIEIRTMDKLPEYLKDHSLDDLAEYFQTHHIKPLALNALVFFNNRDEKGHNEIITEFKGMMETCKTLGVKYVVAVPLVTEQKIVKEEIKKSSVDVLTELSDIAEPYGVKIALEFVGHPQCTVNTFEQAYEIVNTVNRDNVGLVLDSFHFHAMGSNIESLKQADGKKIFIYHIDDTEDFPIGFLTDEDRVWPGQGAIDLDAHLSALKEIGFSDVVSVELFRPEYYKLTAEEAIQTAKKTTVDVVSKYFSM	not failed
MSLKITEVKAHALSTPIPERMRVESGAGLKLNRQMILVEVRTDEGVTGVGSPSGPYDLAVLKRAIEDVIGPQLIGEDPANINYLWHKVFHGEVSRNLGHRSVGIAAMSGVDIALWDLKGRAMNQPIYQLLGGKFHTRGVRAYASSIYWDLTPDQAADELAGWVEQGFTAAKLKVGRAPRKDAANLRAMRQRVGADVEILVDANQSLGRHDALAMLRILDEAGCYWFEEPLSIDDIEGHRILRAQGTPVRIATGENLYTRNAFNDYIRNDAIDVLQADASRAGGITEALAISASAASAHLAWNPHTFNDIITVAANLHLVAASPHPAMFEWDITHNDLMTRLASYDLKLENGLVQPPQGPGLGFEIDWDFVAAHAWKGEPAIGAGHGMKKEGHHHHHH	not failed
MFLVCGEALFDIFTRADDGGSLNRLGFDAIAGGSPFNVAIGLRRLGVEAAFFAGLSTDYLGRRLRAVLEQETVNAEHLIEFDAPTTLAMVAVGSDGSPTYSFRGDGCADRQLRLEHLPELDERVRGIHVGSFSLVVQPIADTLLALVARESARRLISLDPNVRLNPAPDIQRWRTQIAAFAEHAHLIKVSDEDLHLLYPDSDPQQIAEGWLGKRTQLVIVTRGTQGASVFTRQHGTWSVPAKTVVTADTVGAGDTFQAALLTFLSERQLDTPQGLSTLSRETLDEMLNFAVGAAALTCTKVGPDLPYRHQLG	failed
MLFEGLPCLAVWCKNRLSAVLPVGGLNVSENLLEIETHPFDPVLPPKAAVMMMGTFPPKEDKRAMQFHYPNFQNDMWRVYGLVFFNDAAHFQRLSEKAFDAEKIKAFLHERGIASCPTVLKAVRQHGNASDKFLKVVETVDLAAVLAKIPECRHICTTGGKATEILLDIQGGGIKMPKTGETVPFPFAGRDLTLTRLPSTSRAYPLSLAKKAAAYRAFFEMAGLCEKQLLEHHHHHH	failed
MRERRFTSDAAHELRSPLTALKVQTEVAQLSDDDPQARKKALLQLHSGIDRATRLVDQLLTLSRLDSLDNLQDVAEIPLEDLLQSSVMDIYHTAQQAKIDVRLTLNAHSIKRTGQPLLLSLLVRNLLDNAVRYSPQGSVVDVTLNADNFIVRDNGPGVTPEALARIGERFYRPPGQTATGSGLGLSIVQRIAKLHGMNVEFGNAEQGGFEAKVSW	not failed
MSETITFPPLMTGEAAGPGQDPFDLACQKAELGVDAGLVVYELGTDVLRAALVLAPEVPLAKAMAMLPVCGVGFQNALGALAPPEVAVHLDWNGALRINGARCGRLRIAASTDDPDTQPDWLVVGLDLPLWPEGDGGETPDETALYAEGCADVAAPRLLESWARHCLHWINRWDEGELETIHGEWRGLAHGMGEARTEAGRSGTFLGVDEDFGMLLRDETTTHLIPLTTVLVQD	not failed
MSTCTLRFKNDWLKIFTCPVPSSDFLSFVGVATIDAPQHAVLSLLYDIESATEWVWKTREMRVLQELADDNEGRVVYQVVSAPWPVSDREIISRSTAYKDPETGEVFIKIESLPDFIPETSNCVRVRKLEGAWNILPLSENSCRVVFRLHIEPAGEIPSWLANIAVIDTPYHTLNNMRDMVKREKYKNPLEHHHHHH	failed
